Experimental data from patent publication US20240117030A1 (Pfizer, published 2024).
Residue numbers refer to the chain shown, from its start.

T1: human IL-33 mm2 Cys (human, UniProt O95760 112-270, limits assumed)
T1 sequence (looked up): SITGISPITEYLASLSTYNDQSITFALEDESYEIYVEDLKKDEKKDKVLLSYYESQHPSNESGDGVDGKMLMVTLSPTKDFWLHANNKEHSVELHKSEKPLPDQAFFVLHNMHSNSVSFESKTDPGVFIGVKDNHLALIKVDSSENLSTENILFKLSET

T2: recombinant human IL-33 (human, UniProt O95760 112-270, limits assumed)
T2 sequence (looked up): T1 sequence (looked up) with S97C, S116C, S121C, S148C

T3: recombinant human IL-4 (human, UniProt P05112 25-153)
T3 sequence (looked up): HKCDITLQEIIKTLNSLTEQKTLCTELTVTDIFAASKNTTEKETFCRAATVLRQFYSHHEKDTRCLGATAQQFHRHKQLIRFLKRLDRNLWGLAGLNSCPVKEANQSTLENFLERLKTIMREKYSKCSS

B1: IL33-0217 (antibody, human IgG1, kappa, V domains shown)
VH: EVQLVESGGGLVQPGGSLRLSCAASGFTFSSYWMYWVRQAPGKGLEWVAAITPNAGEDYYPESVKGRFTISRDNAKNSLYLQMNSLRAEDTAVYYCARGHYYYTSYSLGYWGQGTLVTVSS
VL: DIQMTQSPSSLSASVGDRVTITCRASQNINKHLDWYQQKPGKAPKLLIYFTNNLQTGVPSRFSGSGSGTDFTLTISSLQPEDFATYYCFQYNQGWTFGGGTKVEIKR
B2: IL33-0219 (antibody, human IgG1, kappa, V domains shown)
VH: B1 VH
VL: B1 VL with N30Q
B3: IL33-0220 (antibody, human IgG1, kappa, V domains shown)
VH: B1 VH
VL: B1 VL with N30Y
B4: IL13433-0006 (other)
heavy: EVQLVESGGGLVQPGGSLRLSCAASGFTFSSYAMSWVRQAPGKGLEWVASISSGDTTYYPDSVKGRFTISRDNAKNSLYLQMNSLRAEDTAVYYCARNEGYYFGLTLWGQGTLVTVSSASTKGPSVFPKAPSSKSTSGGTAALGCLVKDYFPEPVTVSWNSGALTSGVHTFPAVLQSSGLYSLSSSVTVPSSSLGTQTYICNVNHKPSNTKVDKKVEPKSCDKTHTCPPCPAPEAAGAPSVFLFPPKPKDTLMISRTPEVTCVVVDVSHEDPEVKFNWYVDGVEVHNAKTKPREEQYNSTYRVVSVLTVLHQDWLNGKEYKCKVSNKALPAPIEKTISKAKGQPREPQVCTLPPSREEMTKNQVSLWCLVKGFYPSDIAVEWESNGQPENNYKTTPPVLDSDGSFFLYSKLTVDKSRWQQGNVFSCSVMHEALHNHYTQKSLSLSPGK
chain 1: DIQMTQSPSSLSASVGDRVTITCKASQNINKHLDWYQQKPGKAPKLLIYFTNNLQTGVPSRFSGSGSGTDFTLTISSLQPEDFATYYCFQYNQGWTFGGGTKVEIKRTVAAPSVFIFPPSDEQLKSGTASVVCLLNNFYPREAKVQWKVDNALQSGNSQESVTEQDSKDSTYSLSSTLTLSKADYEKHKVYACEVTHQGLSSPVTKSFNRGECGGGGSEVTLRESGPALVKPTQTLTLTCTFSGFSLSNFGEGLSWIRQPPGKGLEWLAHIYWDDDKRYNPSLKSRLTISKDTSRNQVVLTMTNMDPVDTATYYCARRETVFYWYFDVWGQGTTVTVSSASTKGPSVFPEAPSSKSTSGGTAALGCLVKDYFPEPVTVSWNSGALTSGVHTFPAVLQSSGLYSLGSVVTVPSSSLGTQTYICNVNHKPSNTKVDKKVEPKSCDKTHTCPPCPAPEAAGAPSVFLFPPKPKDTLMISRTPEVTCVVVDVSHEDPEVKFNWYVDGVEVHNAKTKPREEQYNSTYRVVSVLTVLHQDWLNGKEYKCKVSNKALPAPIEKTISKAKGQPREPQVYTLPPCREEMTKNQVSLSCAVKGFYPSDIAVEWESNGQPENNYKTTPPVLDSDGSFFLVSKLTVDKSRWQQGNVFSCSVMHEALHNHYTQKSLSLSPGK
light 1: DIQMTQSPSSLSASVGDRVTITCKASESVDHFGWSLVHWYQQKPGKAPKLLIYRASNLESGVPSRFSGSGSGTDFTLTISSLQPEDFATYYCQQSNEDPWTFGGGTKVEIKRTVAAPSVFIFPPSDEQLKSGTASVSCLLNNFYPREAKVQWKVDNALQSGNSQESVTEQDSKDSTYSLDSTLTLSKADYEKHKVYACEVTHQGLSSPVTKSFNRGEC
light 2: B4 light 1 with E27Q, H31E, F32D, W34D, L36Y, V37M, H38N, R54A, W100P, D180K
chain 2: EVQLVESGGGLVQPGGSLRLSCAASGFTFSSYWMYWVRQAPGKGLEWVAAITPNAGEDYYPESVKGRFTISRDNAKNSLYLQMNSLRAEDTAVYYCARGHYYYTSYSLGYWGQGTLVTVSSASTKGPSVFPLAPSSKSTSGGTAALGCLVKDYFPEPVTVSWNSGALTSGVHTFPAVLQSSGLYSLSSVVTVPSSSLGTQTYICNVNHKPSNTKVDKKVEPKSC
B5: IL13433-1042 (other)
heavy: EVQLVESGGGLVQPGGSLRLSCAASGFTFSSYWMYWVRQAPGKGLEWVAAITPNAGEDYYPESVKGRFTISRDNAKNSLYLQMNSLRAEDTAVYYCARGQYYYTKYSLGYWGQGTLVTVSSASTKGPSVFPLAPSSKSTSGGTAALGCLVKDYFPEPVTVSWNSGALTSGVHTFPAVLQSSGLYSLSSVVTVPSSSLGTQTYICNVNHKPSNTKVDKKVEPKSCRKTHTCPRCPAPEAAGAPSVFLFPPKPKDTLMISRTPEVTCVVVDVSHEDPEVKFNWYVDGVEVHNAKTKPREEQYNSTYRVVSVLTVLHQDWLNGKEYKCKVSNKALPAPIEKTISKAKGQPREPQVYTLPPSREEMTKNQVSLTCLVKGFYPSDIAVEWESNGQPENNYKTTPPVLDSDGSFFLYSRLTVDKSRWQQGNVFSCSVLHEALHSHYTQKSLSLSPGK
chain 1: DIQMTQSPSSLSASVGDRVTITCKASESVDHFGWSLVHWYQQKPGKAPKLLIYRASNLESGVPSRFSGSGSGTDFTLTISSLQPEDFATYYCQQSNEDPWTFGGGTKVEIKRTVAAPSVFIFPPSDEQLKSGTASVVCLLNNFYPREAKVQWKVDNALQSGNSQESVTEQDSKDSTYSLSSTLTLSKADYEKHKVYACEVTHQGLSSPVTKSFNRGECGGGGSEVTLRESGPALVKPTQTLTLTCTFSGFSLSNFGEGLSWIRQPPGKGLEWLAHIYWDDDKRYNPSLKSRLTISKDTSRNQVVLTMTNMDPVDTATYYCARRETVFYWYFDVWGQGTTVTVSSASTKGPSVFPLAPSSKSTSGGTAALGCLVKDYFPEPVTVSWNSGALTSGVHTFPAVLQSSGLYSLSSVVTVPSSSLGTQTYICNVNHKPSNTKVDKKVEPKSCEKTHTCPECPAPEAAGAPSVFLFPPKPKDTLMISRTPEVTCVVVDVSHEDPEVKFNWYVDGVEVHNAKTKPREEQYNSTYRVVSVLTVLHQDWLNGKEYKCKVSNKALPAPIEKTISKAKGQPREPQVYTLPPSREEMTKNQVSLTCEVKGFYPSDIAVEWESNGQPENNYKTTPPVLDSDGSFFLYSKLTVDKSRWQQGNVFSCSVLHEALHSHYTQKSLSLSPGK
light 1: DIQMTQSPSSLSASVGDRVTITCRASQPIHNHLDWYQQKPGKAPKLLIYFGKNLQEGVPSRFSGSGSGTDFTLTISSLQPEDFATYYCFQYKKGWSFGGGTKVEIKRTVAAPSVFIFPPSDEQLKSGTASVVCLLNNFYPREAKVQWKVDNALQSGNSQESVTEQDSKDSTYSLSSTLTLSKADYEKHKVYACEVTHQGLSSPVTKSFNRGEC
light 2: DIQMTQSPSSLSASVGDRVTITCRASQSVDEEGDSYMNWYQQKPGKAPKLLIYAASNLESGVPSRFSGSGSGTDFTLTISSLQPEDFATYYCQQSNEDPPTFGGGTKVEIKRTVAAPSVFIFPPSDEQLKSGTASVVCLLNNFYPREAKVQWKVDNALQSGNSQESVTEQDSKDSTYSLSSTLTLSKADYEKHKVYACEVTHQGLSSPVTKSFNRGEC
chain 2: EVQLVESGGGLVQPGGSLRLSCAASGFTFSSYAMSWVRQAPGKGLEWVASISSGDTTYYPDSVKGRFTISRDNAKNSLYLQMNSLRAEDTAVYYCARNEGYYFGLTLWGQGTLVTVSSASTKGPSVFPLAPSSKSTSGGTAALGCLVKDYFPEPVTVSWNSGALTSGVHTFPAVLQSSGLYSLSSVVTVPSSSLGTQTYICNVNHKPSNTKVDKKVEPKSC
B6: IL13433-1261 (other)
heavy: B5 heavy with R225D, R232P
chain 1: B5 chain 1 with E448D, E455P
light 1: B5 light 1
light 2: B5 light 2 with E97K
chain 2: B5 chain 2
B7: IL13433-1270 (other)
heavy: B5 heavy with L132K, V189S, R225D, R232P, Y353C, T370W, R413K
chain 1: B5 chain 1 with L355E, S410G, E448D, E455P, S581C, T593S, E595A, Y634V
light 1: B5 light 1 with V132S, S175D
light 2: B5 light 2 with E97K, V137S, S180K
chain 2: B5 chain 2
B8: IL13433-1275 (other)
heavy: B5 heavy with R225D, R232P, T370W, R413K
chain 1: B5 chain 1 with E448D, E455P, T593S, E595A, Y634V
light 1: B5 light 1
light 2: B5 light 2 with E97K
chain 2: B5 chain 2
B9: IL13433-1279 (other)
VH 1: EVQLVESGGGLVQPGGSLRLSCAASGFTFSSYAMSWVRQAPGKGLEWVASISSGDTTYYPDSVKGRFTISRDNAKNSLYLQMNSLRAEDTAVYYCARNEGYYFGLTLWGQGTLVTVSS
VL 1: DIQMTQSPSSLSASVGDRVTITCKASESVDHFGWSLVHWYQQKPGKAPKLLIYRASNLESGVPSRFSGSGSGTDFTLTISSLQPEDFATYYCQQSNEDPWTFGGGTKVEIK
VH 2: EVTLRESGPALVKPTQTLTLTCTFSGFSLSNFGEGLSWIRQPPGKGLEWLAHIYWDDDKRYNPSLKSRLTISKDTSRNQVVLTMTNMDPVDTATYYCARRETVFYWYFDVWGQGTTVTVSS
VL 2: DIQMTQSPSSLSASVGDRVTITCRASQSVDEEGDSYMNWYQQKPGKAPKLLIYAASNLESGVPSRFSGSGSGTDFTLTISSLQPEDFATYYCQQSNKDPPTFGGGTKVEIK
VH 3: B1 VH with H100Q, S105K
VL 3: DIQMTQSPSSLSASVGDRVTITCRASQPIHNHLDWYQQKPGKAPKLLIYFGKNLQEGVPSRFSGSGSGTDFTLTISSLQPEDFATYYCFQYKKGWSFGGGTKVEIK

What was measured:
Assay in all cases: cell-based or functional assay
human IL-33 mm2 Cys = target: T1, human IL-33 mm2 Cys
recombinant human IL-13 = recombinant human IL-13 (human, UniProt P35225 35-146)
recombinant human IL-33 = target: T2, recombinant human IL-33
recombinant human IL-4 = target: T3, recombinant human IL-4

Chain of recombinant human IL-13 (P35225 35-146 limits assumed): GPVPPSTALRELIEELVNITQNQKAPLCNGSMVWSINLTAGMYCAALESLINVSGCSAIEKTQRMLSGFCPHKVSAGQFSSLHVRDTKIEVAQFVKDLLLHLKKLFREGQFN

Binder	IC50 [pM] versus human IL-33 mm2 Cys (HEK-Blue SEAP) (human IL-33 mm2 Cys) [pM]	IL-13 Induced CD23 Expression, potency of cytokine neutralization (recombinant human IL-13) [nM]	IL-33 WT Activation of SEAP Reporter Cells, potency of cytokine neutralization (recombinant human IL-33) [nM]	IL-4 Induced CD23 Expression, potency of cytokine neutralization (recombinant human IL-4) [nM]
B1	158			
B2	142			
B3	176			
B4		0.00901	0.112	0.0103
B5		0.0124	0.028	0.0071
B6		0.00897	0.021	0.0139
B7		0.00758	0.012	0.0165
B8		0.00888	0.013	0.0149
B9		0.00913	0.013	0.0137
